Measurements taken from PMC3518660 (Journal of immunology (Baltimore, Md. : 1950), 2012).
Numbering of substitutions follows the chain as printed. In names and notes the source's numbering stands. Where two headings read alike, the source gives them in different places.

Legend:
[1] = molecular target: T1, recombinant soluble integrin αvβ3 (UniProt P06756 31-987; P05106 27-718); assay: SPR
[2] = molecular target: T1, recombinant soluble integrin αvβ3; assay: SPR; remark: listed apart in the source
[3] = molecular target: T1, recombinant soluble integrin αvβ3; assay: ELISA

T1 sequence (P06756 31-987, chain 1 of 2): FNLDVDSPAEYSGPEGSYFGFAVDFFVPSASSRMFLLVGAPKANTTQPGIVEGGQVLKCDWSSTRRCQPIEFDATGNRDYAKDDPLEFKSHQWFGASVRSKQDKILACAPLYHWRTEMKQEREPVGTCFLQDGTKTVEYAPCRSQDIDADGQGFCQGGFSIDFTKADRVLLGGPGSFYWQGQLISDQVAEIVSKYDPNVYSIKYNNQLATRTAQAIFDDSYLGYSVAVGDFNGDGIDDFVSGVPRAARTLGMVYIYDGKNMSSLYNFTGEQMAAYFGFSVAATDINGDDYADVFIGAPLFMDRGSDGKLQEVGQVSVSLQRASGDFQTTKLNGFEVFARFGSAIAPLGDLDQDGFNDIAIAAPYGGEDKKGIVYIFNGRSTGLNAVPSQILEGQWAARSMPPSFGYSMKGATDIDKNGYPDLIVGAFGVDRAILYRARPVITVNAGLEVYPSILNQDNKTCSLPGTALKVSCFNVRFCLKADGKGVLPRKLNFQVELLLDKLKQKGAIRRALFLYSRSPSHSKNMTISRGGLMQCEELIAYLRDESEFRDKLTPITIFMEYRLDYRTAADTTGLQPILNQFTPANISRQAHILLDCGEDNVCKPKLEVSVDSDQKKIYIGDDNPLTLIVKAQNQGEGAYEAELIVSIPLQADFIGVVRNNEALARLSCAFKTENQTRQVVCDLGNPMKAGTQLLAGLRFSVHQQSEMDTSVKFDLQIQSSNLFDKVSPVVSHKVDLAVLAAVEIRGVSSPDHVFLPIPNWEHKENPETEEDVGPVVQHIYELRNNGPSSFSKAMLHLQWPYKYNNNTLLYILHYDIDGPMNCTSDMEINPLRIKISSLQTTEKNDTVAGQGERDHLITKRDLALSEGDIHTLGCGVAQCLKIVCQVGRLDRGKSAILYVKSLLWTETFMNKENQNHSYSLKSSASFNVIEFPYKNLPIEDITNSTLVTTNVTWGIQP
T1 sequence (P05106 27-718, chain 2 of 2): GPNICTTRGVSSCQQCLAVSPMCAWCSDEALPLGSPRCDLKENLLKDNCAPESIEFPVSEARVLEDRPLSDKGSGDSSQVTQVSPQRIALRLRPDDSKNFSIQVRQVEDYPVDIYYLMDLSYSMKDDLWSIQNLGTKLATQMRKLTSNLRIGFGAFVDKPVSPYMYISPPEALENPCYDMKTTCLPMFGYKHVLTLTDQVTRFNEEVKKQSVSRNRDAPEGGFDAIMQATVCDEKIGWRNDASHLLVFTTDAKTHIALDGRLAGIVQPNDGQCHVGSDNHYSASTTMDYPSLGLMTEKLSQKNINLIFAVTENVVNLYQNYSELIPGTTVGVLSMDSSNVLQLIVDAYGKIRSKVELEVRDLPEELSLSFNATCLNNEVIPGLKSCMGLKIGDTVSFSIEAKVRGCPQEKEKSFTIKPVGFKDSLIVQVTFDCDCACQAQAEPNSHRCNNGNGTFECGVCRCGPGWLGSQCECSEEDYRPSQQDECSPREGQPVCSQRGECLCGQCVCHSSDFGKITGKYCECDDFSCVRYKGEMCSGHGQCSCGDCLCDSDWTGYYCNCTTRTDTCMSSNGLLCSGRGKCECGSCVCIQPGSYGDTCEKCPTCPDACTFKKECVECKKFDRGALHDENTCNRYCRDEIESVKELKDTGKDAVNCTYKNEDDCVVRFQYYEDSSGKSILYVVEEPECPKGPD

B1: chemokine domain of fractalkine (FKN-CD), wild type, 6His-tagged (domain or fragment, human)
chain: QHHGVTKCNITCSKMTSKIPVALLIHYQQNQASCGKRAIILETRQHRLFCADPKEQWVKDAMQHLDRQAAALTRNG
Q: With B1 as the binder, how does the Kd [1] read?
A: 11 nM

Q: What about the Kd [2] of the same binder?
A: 6.9 nM

B2: FKN-CD Lys54 to Ala mutant (K54A) (domain or fragment, human)
chain: B1 chain with K54A
Q: Does B2 bind [3]?
A: binds

B3: FKN-CD Lys54/Lys59 to Ala mutant (K54A/K59A) (domain or fragment, human)
chain: B1 chain with K54A, K59A
Q: Does B3 bind [3]?
A: binds

B4: FKN-CD Arg47 to Ala mutant (R47A) (domain or fragment, human)
chain: B1 chain with R47A
Q: Does B4 bind [3]?
A: binds
